The values that follow come from paper PMC2935145.

This assay has as its target Hr domain from the Acidothermus cellulolyticus P_(1B-5)-ATPase (P_(1B-5)-Hr) (Acidothermus cellulolyticus 11B). Put plainly: SEC. In general terms: SEC sorts molecules by how far they enter the pores of the column.

As usually defined, the stoichiometry N is a count of units in the complex or per binding partner.

In turn, “Hr domain from the Acidothermus cellulolyticus P_(1B-5)-ATPase (P_(1B-5)-Hr) (domain or fragment)” came in with a stoichiometry N of 2.
